According to patent publication US20020102250A1, “Recombinant S. aureus peptide deformylase” (priority 2000, published 2002):

B1: E. coli pdf: Iron form of E. coli peptide deformylase, C-terminally His tagged, known to be unstable, used for comparison (protein, UniProt P0A6K3 2-169, looked up)
Peptide deformylase: SVLQVLHIPDERLRKVAKPVEEVNAEIQRIVDDMFETMYAEEGIGLAATQVDIHQRIIVIDVSENRDERLVLINPELLEKSGETGIEEGCLSIPEQRALVPRAEKVKIRALDRDGKPFELEADGLLAICIQHEMDHLVGKLFMDYLSPLKQQRIRQKVEKLDRLKARA
modifications: C-terminal His tag; iron form
B2: Fe complex of pdf: Fe complex of peptide deformylase of the prior art (background, E. coli enzyme context) (protein, UniProt P0A6K3 2-169, looked up)
Peptide deformylase: B1 Peptide deformylase
modifications: iron form

Legend:
[1] = Stability of Fe forms of pdf at serial dilutions with or without catalase; pdf assay coupled to Vibrio aminopeptidase; type: biochemical
Method: A description of the optimized assay conditions is as follows. The final assay solution contained 50 mM Hepes, 10 mM NaCl, pH 7.0, 0.1% K-casein (Sigma Chemical Co.; St. Louis, Mo.), 100 micromolar formyl-Met-Leu-p-nitroanilide (prepared by standard methods and commercially available from Bachem Bioscience, Inc.; Philadelphia, Pa.; Catalog No. L2030), 5 nanograms of pdf protein (iron form) or 100 nanograms of pdf protein (zinc form), and V. proteolytica aminopeptidase.
(A) 25 microliters of inhibitor in 15% dimethyl sulfoxide (DMSO) (maximum) was pipetted into 96 well microtiter plates (Immulon II from Dynex Technologies; Chantilly, Va.).
(B) 100 microliters of bulk assay solution was pipetted next. This solution is described as follows, and required that the reagents be mixed in the order shown below (enough for 100 assays):
(C) The plate was preincubated at room temperature for 10 minutes.
(D) Finally, 25 microliters of 0.6 mM f-Met-Leu-p-nitroanilide (prepared by adding 120 microliters of 20 mM stock in 100% MeOH to 3,880 microliters of assay buffer) was added.
(E) Each plate was examined in a SpectraMax 250 reader (Molecular Devices Corp.; Sunnyvale, Calif.) using an absorbance of 405 nm. Time points were taken every 20 seconds over a 30 minute time course at 25° C. Since oxidation might be an issue, the plate was mixed to begin the reaction, but not prior to subsequent time points. Addition of anti-oxidant reagents is not required, and preferably reducing agents are not added. Each line was checked for linearity over time and the resulting R^2 value was expected to be greater than about 0.98 for assay validity.
Expression of the iron form of S. aureus or E. coli pdf (known to be unstable) in E. coli was monitored after the addition of 1.6 mM FeCl3 in the media (Luria broth). Incubation was allowed to proceed for 1 hour prior to the addition of IPTG (0.4 mM). Induction continued for 3 hours at 37° C. Cells were isolated and extracted in the presence of catalase (10 micrograms/ml). The purpose of the catalase was to act as an oxygen scavenger to prevent the inactivation of the Fe form of the E. coil pdf. The extracts were subjected to Ni-NTA chromatography for the purification of the C-terminally His tagged versions of both the E. coli and S. aureus pdf proteins. The purified proteins (concentrated to at least 1 mg/ml by ultrafiltration using a membrane available from Amicon; Bedford, Mass.) were stored in the presence of 10 micrograms/ml (minimum concentration) catalase. To examine the stability of the Fe forms of the pdf proteins, dilutions of the proteins were made in the presence or absence of catalase, followed by assays of the enzymes (serially diluted) in the presence or absence of catalase (at 100 micrograms/ml). Assays were run using formyl-Met-Leu-p-nitroanilide as substrate, coupled to the Vibrio aminopeptidase.
The results, which depict linear reactions catalyzed by pdf, are shown in FIG. 2 for S. aureus pdf and FIG. 3 for E. coli pdf. […] The rates shown are in mOD/minute, and each line represents a different concentration of the pdf in nanogram amounts as listed in the legend. […] This is consistent with a significant loss of enzyme activity in the absence of catalase only for the E. coli enzyme. See Rajagopalan et al., J. Amer. Chem. Soc., 119:12418-19 (1997).

[2] = Fe complex, as reported in prior work; cited from earlier work

Molecule	Vmax ([1]; 125 ng pdf, with added catalase)	Vmax ([1]; 125 ng pdf, without added catalase)	Vmax ([1]; 250 ng pdf, with added catalase)	Vmax ([1]; 250 ng pdf, without added catalase)	Vmax ([1]; 500 ng pdf, with added catalase)	Vmax ([1]; 500 ng pdf, without added catalase)	Vmax ([1]; 1000 ng pdf, with added catalase)	Vmax ([1]; 1000 ng pdf, without added catalase)	pdf activity as a function of dilution, with versus without catalase in the assay solution ([1]; catalase at 100 micrograms/ml or absent)	half-life [2]
B1	8.4 mOD/minute	2.4 mOD/minute	19.2 mOD/minute	3.7 mOD/minute	45.1 mOD/minute	6.5 mOD/minute	133 mOD/minute	18.9 mOD/minute	rapidly loses activity	–
B2	–	–	–	–	–	–	–	–	–	around 30 seconds
